In patent US20210324099A1 (Chugai, published 2021):

Assays:
[1] = biological target: T1, Biotinylated Fc-fused monkey CD137 (monkey, biotin on the AviTag); assay: ELISA; 500 uM kynurenine, Ab 10 ug/mL
T1 construct: Monkey CD137 extracellular region, antibody constant region and Avitag; whole entry named; also called cyCD137-Fc-BAP

[2] = biological target: T2, hCD137.2.4-F.G1d (human); assay: ELISA; 500 uM kynurenine, Ab 10 ug/mL
T2 construct: Portion of the human CD137 extracellular region linked to an antibody constant region

[3] = biological target: T3, hCD137.2.3-F.G1d (human); assay: ELISA; 500 uM kynurenine, Ab 10 ug/mL
T3 construct: Portion of the human CD137 extracellular region linked to an antibody constant region

[4] = biological target: T4, hCD137.3.4-F.G1d (human); assay: ELISA; 500 uM kynurenine, Ab 10 ug/mL
T4 construct: Portion of the human CD137 extracellular region linked to an antibody constant region

[5] = biological target: T5, hCD137.1-F-G1d (human); assay: ELISA; 500 uM kynurenine, Ab 10 ug/mL
T5 construct: Portion of the human CD137 extracellular region linked to an antibody constant region

[6] = biological target: T6, hCD137.1.2-F.G1d (human); assay: ELISA; 500 uM kynurenine, Ab 10 ug/mL
T6 construct: Portion of the human CD137 extracellular region linked to an antibody constant region

[7] = biological target: T7, hIL6R (human, UniProt P08887 20-357); assay: SPR 37C; ADP 10 uM
T7 construct: Purified from culture supernatant of a CHO line; whole entry named; also called human interleukin 6 receptor (purified antigen from hIL6R-CHO supernatant)
T7 sequence: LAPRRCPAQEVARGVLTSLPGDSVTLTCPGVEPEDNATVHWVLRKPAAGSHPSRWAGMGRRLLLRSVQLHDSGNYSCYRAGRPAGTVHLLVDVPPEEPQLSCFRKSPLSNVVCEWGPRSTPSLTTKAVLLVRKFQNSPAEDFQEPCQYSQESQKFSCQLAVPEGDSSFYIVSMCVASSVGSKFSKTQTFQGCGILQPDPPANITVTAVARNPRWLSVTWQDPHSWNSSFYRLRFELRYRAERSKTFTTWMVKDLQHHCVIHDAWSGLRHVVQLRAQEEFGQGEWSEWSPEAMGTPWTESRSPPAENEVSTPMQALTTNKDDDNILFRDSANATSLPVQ

[8] = biological target: T7, hIL6R; assay: SPR 37C; AMP 10 uM
[9] = biological target: T7, hIL6R; assay: SPR 37C; ADP 100 uM
[10] = biological target: T7, hIL6R; assay: SPR 37C; AMP 100 uM
[11] = biological target: T7, hIL6R; assay: SPR 37C, mean; ATP 0 uM
[12] = biological target: T7, hIL6R; assay: SPR 37C, mean; ATP 1 uM
[13] = biological target: T7, hIL6R; assay: SPR 37C, mean; ATP 10 uM
[14] = biological target: T7, hIL6R; assay: SPR 37C, mean; ATP 100 uM
[15] = biological target: T8, mPD1-G1CH2 (mouse); assay: competition ELISA: mPD1-G1CH2 coated on the plate, mPDL1-G1dCH2His (55 nM) as the blocked ligand; 1, 10 and 100 uM ATP (curves overlap)
T8 construct: Whole entry named; also called Fc-fused murine PD1

[16] = biological target: T7, hIL6R; assay: SPR 37C, mean; ATP 100 uM; ATP 100 uM; mean
[17] = biological target: T7, hIL6R; assay: SPR 37C; ADP 10 uM; ADP 10 uM
[18] = biological target: T7, hIL6R; assay: SPR 37C; ADP 100 uM; ADP 100 uM
[19] = biological target: T7, hIL6R; assay: SPR 37C, mean; ATP 1 uM; ATP 1 uM; mean
[20] = biological target: T7, hIL6R; assay: SPR 37C, mean; ATP 10 uM; ATP 10 uM; mean
[21] = biological target: T8, mPD1-G1CH2; assay: competition ELISA: mPD1-G1CH2 coated on the plate, mPDL1-G1dCH2His (55 nM) as the blocked ligand; 0, 1, 10 and 100 uM ATP (curves overlap)
[22] = biological target: T8, mPD1-G1CH2; assay: as above; remark: listed apart in the source
[23] = biological target: T9, hCD137(FXa digested) (human, UniProt Q07011 24-186); assay: SPR 37C; no ATP
T9 construct: also called human CD137 extracellular domain

[24] = biological target: T9, hCD137(FXa digested); assay: SPR 37C; ATP 1 uM
[25] = biological target: T9, hCD137(FXa digested); assay: SPR 37C; ATP 10 uM
[26] = biological target: T9, hCD137(FXa digested); assay: SPR 37C; ATP 100 uM

B1: dBBK054-P253 (antibody, human IgG1, kappa, V domains shown)
VH: QVQLVQSGAEVKKPGSSVKVSCKASGGWFSYYMISWVRQAPGQGLEWMGVIVPINGAAQYAQKFQGRVTITADESTSTAYMELSSLRSEDTAVYYCARDRPVWRTPRGAFDIWGQGTLVTVSS
VL: DIVMTQSPLSLPVTPGEPASISCRSSQSLVDSNMNTFLSWYLQKPGQSPQLLIYEIQHRFYGVPDRFSGSGSGTDFTLKISRVEAEDVGVYYCMQAMGFPRTFGQGTKVEIKR
absorbance ratio [1]: 1.1
absorbance ratio [2]: 1.3
absorbance ratio [3]: 1.1
absorbance ratio [4]: 1.3

B2: dBBK102-P253 (antibody, human IgG1, kappa, V domains shown)
VH: QVQLVQSGAEVKKPGSSVKVSCKASGGAFSYYLISWVRQAPGQGLEWMGFVDPIRGGAFYAQKFQGRVTITADESTSTAYMELSSLRSEDTAVYYCARDRPVNAAPRGAFDIWGQGTLVTVSS
VL: DIVMTQSPLSLPVTPGEPASISCRSSQSLVWNDRNTFLSWYLQKPGQSPQLLIYEIRKRFYGVPDRFSGSGSGTDFTLKISRVEAEDVGVYYCMQAQDFPRTFGQGTKVEIKR
absorbance ratio [5]: 1.2
absorbance ratio [6]: 1.2
absorbance ratio [2]: 1.1
absorbance ratio [3]: 1.1
absorbance ratio [4]: 1.1

B3: MRAH-G4T1/MRAL-k0 (antibody, human IgG4 S228P, kappa, V domains shown)
VH: QVQLQESGPGLVRPSQTLSLTCTVSGYSITSDHAWSWVRQPPGRGLEWIGYISYSGITTYNPSLKSRVTMLRDTSKNQFSLRLSSVTAADTAVYYCARSLARTTAMDYWGQGSLVTVSS
VL: DIQMTQSPSSLSASVGDRVTITCRASQDISSYLNWYQQKPGKAPKLLIYYTSRLHSGVPSRFSGSGSGTDFTFTISSLQPEDIATYYCQQGNTLPYTFGQGTKVEIKR
notes: Non-switch control antibody
Kd [7]: 5.64 nM
Kd [8]: 5.33 nM
Kd [9]: 5.96 nM
Kd [10]: 5.46 nM
Kd [11]: 17 nM
Kd [12]: 18.8 nM
Kd [13]: 17.9 nM
Kd [14]: 18 nM

B4: H5041-mFa31/L3023-ml0 (antibody, mouse IgG2a, V domains shown)
VH: EVQLVESGGGLVKPGGSLRLSCAASGFTFNTYTMHWVRQAPGKGLEWVSSISSSSKHIYYADSVKGRFTISRDNAKNSLYLQMNSLRAEDTAVYYCARYGRPWELLWVLDYWGQGTLVTVSS
VL: QSALTQPPSASGSPGQTVTISCTGTSTPSGAYDYVSWYQQHPGKAPKLMIYQVSKRPSGVPDRFSGSKSGNTASLTVSGLQAEDEADYFCSTTNSAWDPDFGGGTKLTVLQ
notes: the text of the results names L3021
IC50 (read off the curve) [15]: ~0.8 µg/mL

B5: H0052-G4T1/L1083-lam1 (antibody, human IgG4 S228P, lambda, V domains shown)
VH: EVQLVESGGDLVKPGGGLRLSCAASGFTFSSYTMNWVRQAPGKGLEWVSSISSRSYHIYYADSVDGRFTISRDNAKNSLYLQMNSLRAEDTAVYYCARYGKLYSLNWVFDYWGQGTLVTVSS
VL: QSALTQPPSASGSPGQTVTISCTGTSTDVGDYAYVSWYQQHPGKAPKLMIYYVDKKPSGVPDRFSGSKSGNTASLTVSGLQAEDEADYFCSLRSPGPYPLFGGGTKLTVLG
Kd [7]: 58.1 nM
Kd [8]: 6640 nM
Kd [9]: 10.1 nM
Kd [10]: 118 nM
Kd [12]: 1450 nM
Kd [13]: 50.5 nM
Kd [14]: 8.31 nM

B6: H0002-G4T1/L1058-lam1 (antibody, human IgG4 S228P, lambda, V domains shown)
VH: EVQLVESGGDLVKPGGGLRLSCAASGFTFSSYTMNWVRQAPGKGLEWVSSISSRSYHAYYADSVKGRFTISRDNAKNSLYLQMNSLRAEDTAVYYCARYGKLYSLNWVFDYWGQGTLVTVSS
VL: QSALTQPPSASGSPGQTVTISCTGTSTDVGDYNYVSWYQQHPGKAPKLMIYEVVKKPSGVPDRFSGSKSGNTASLTVSGLQAEDEADYFCSLRSAGPYPLFGGGTKLTVLG
Kd [16]: 1160 nM

B7: H0041-G4T1/L1088-lam1 (antibody, human IgG4 S228P, lambda, V domains shown)
VH: EVQLVESGGDLVKPGGGLRLSCAASGFTFSSYTMNWVRQAPGKGLEWVSSISSQSYHIYYADSVKGRFTISRDNAKNSLYLQMNSLRAEDTAVYYCARYGKLYSLNWVFDYWGQGTLVTVSS
VL: QSALTQPPSASGSPGQTVTISCTGTSTDVGDYAYVSWYQQHPGKAPKLMIYYVSKKPDGVPDRFSGSKSGNTASLTVSGLQAEDEADYFCSLRSPGPYPLFGGGTKLTVLG
Kd [10]: 1810 nM
Kd [17]: 10300 nM
Kd [18]: 296 nM
Kd [19]: 2380 nM
Kd [20]: 320 nM
Kd [16]: 48.3 nM

B8: mPD1F2VH-mF18/mPD1F2VL-mk1 (antibody, mouse IgG1, kappa, V domains shown)
VH: EVQLVQSGGGVVQPGRSLRLSCAASGFTFSSYWMSWVRQAPGKGLEWVSAISGSGGSTYYADSVKGRFTISRDNSKNTLYLQMNSLRAEDTAVYYCAKENWGSYFDLWGQGTTVTVSS
VL: DIVMTQSPSTLSASVGDRVTITCRASQGISSWLAWYQQKPGRAPKVLIYKASTLESGVPSRFSGSGSGTDFTLTISSLQPEDFATYYCQQSYSTPWTFGQGTKLEIKR
notes: Control anti-PD1 antibody; also called mPD1F2VH-mF18/mPD1F2VL-mkl
IC50 (read off the curve) [21]: ~0.6 µg/mL
IC50 (read off the curve) [22]: ~0.6 µg/mL

B9: 20H4.9-mIgG1/20H4.9LC-mk0 (antibody)
heavy: QVQLQQWGAGLLKPSETLSLTCAVYGGSFSGYYWSWIRQSPEKGLEWIGEINHGGYVTYNPSLESRVTISVDTSKNQFSLKLSSVTAADTAVYYCARDYGPGNYDWYFDLWGRGTLVTVSSAKTTPPSVYPLAPGSAAQTNSMVTLGCLVKGYFPEPVTVTWNSGSLSSGVHTFPAVLQSDLYTLSSSVTVPSSTWPSETVTCNVAHPASSTKVDKKIVPRDCGCKPCICTVPEVSSVFIFPPKPKDVLTITLTPKVTCVVVDISKDDPEVQFSWFVDDVEVHTAQTQPREEQFNSTFRSVSELPIMHQDWLNGKEFKCRVNSAAFPAPIEKTISKTKGRPKAPQVYTIPPPKEQMAKDKVSLTCMITDFFPEDITVEWQWNGQPAENYKNTQPIMDTDGSYFVYSKLNVQKSNWEAGNTFTCSVLHEGLHNHHTEKSLSHSPGK
light: EIVLTQSPATLSLSPGERATLSCRASQSVSSYLAWYQQKPGQAPRLLIYDASNRATGIPARFSGSGSGTDFTLTISSLEPEDFAVYYCQQRSNWPPALTFGGGTKVEIKRADAAPTVSIFPPSSEQLTSGGASVVCFLNNFYPKDINVKWKIDGSERQNGVLNSWTDQDSKDSTYSMSSTLTLTKDEYERHNSYTCEATHKTSTSPIVKSFNRNEC
notes: also called NS1-mIgG1
Kd [23]: 61.7 nM
Kd [24]: 56.2 nM
Kd [25]: 54.4 nM
Kd [26]: 53.6 nM
